Measured values as given in patent US9862971B2 (BUNDESREPUBLIK DEUTSCHLAND, LETZTVERTRETEN DURCH DEN …, dated 2018).

Target: CD46 (human, UniProt P15529)
Test: cell-based or functional assay

B1: MeV HEdm wildtype (wt) protein (other)
chain: MSPQRDRINAFYKDNPHPKGSRIVINREHLMIDRPYVLLAVLFVMFLSLIGLLAIAGIRLHRAAIYTAEIHKSLSTNLDVTNSIEHQVKDVLTPLFKIIGDEVGLRTPQRFTDLVKFISDKIKFLNPDREYDFRDLTWCINPPERIKLDYDQYCADVAAEELMNALVNSTLLETRTTNQFLAVSKGNCSGPTTIRGQFSNMSLSLLDLYLGRGYNVSSIVTMTSQGMYGGTYLVEKPNLSSKRSELSQLSMYRVFEVGVIRNPGLGAPVFHMTNYLEQPVSNDLSNCMVALGELKLAALCHGEDSITIPYQGSGKGVSFQLVKLGVWKSPTDMQSWVPLSTDDPVIDRLYLSSHRGVIADNQAKWAVPTTRTDDKLRMETCFQQACKGKIQALCENPEWAPLKDNRIPSYGVLSVDLSLTVELKIKIASGFGPLITHGSGMDLYKSNHNNVYWLTIPPMKNLALGVINTLEWIPRFKVSPYLFTVPIKEAGGDCHAPTYLPAEVDGDVKLSSNLVILPGQDLQYVLATYDTSRVEHAVVYYVYSPSRSFSYFYPFRLPIKGVPIELQVECFTWDQKLWCRHFCVLADSESGGHITHSGMVGMGVSCTVTREDGTNRR
- titer [t.u./ml] of HIV-1 vector particles on 293T cells, concentrated supernatant: 0 t.u./ml
- titer [t.u./ml] of HIV-1 vector particles on U-87MG cells, concentrated supernatant: 0 t.u./ml
